Results on 1 molecule are retold here after PMC5464768, “ER retention is imposed by COPII protein sorting and attenuated by 4-phenylbutyrate” (eLife, 2017).

The target of the assay is T1, 5-Fam-[…] (vesicular stomatitis virus).
T1 construct: also called fluorescent tracer peptide; fluorescent probe
The assay can be described thus: fluorescence polarisation. The settings on record: both partners purified.

B1: Sec24a (△1–340) (domain or fragment)
chain: LSLQPEGLRVVNLLQERNMLPSTPLKPPVPNLHEDIQKLNCNPELFRCTLTSIPQTQALLNKAKLPLGLLLHPFKDLVQLPVVTSSTIVRCRSCRTYINPFVSFLDQRRWKCNLCYRVNDVPEEFLYNPLTRVYGEPHRRPEVQNATIEFMAPSEYMLRPPQPPVYLFVFDVSHNAVETGYLNSVCQSLLDNLDLLPGNTRTKIGFITFDSTIHFYGLQESLSQPQMLIVSDIEDVFIPMPENLLVNLNESKELVQDLLKTLPQMFTKTLETQSALGPALQAAFKLMSPTGGRMSVFQTQLPTLGVGALKPREEPNHRSSAKDIHMTPSTDFYKKLALDCSGQQVAVDLFLLSGQYSDLASLGCISRYSAGSVYYYPSYHHQHNPVQVQKLQKELQRYLTRKIGFEAVMRIRCTKGLSIHTFHGNFFVRSTDLLSLPNVNPDAGYAVQMSVEESLTDTQLVSFQSALLYTSSKGERRIRVHTLCLPVVSTLNDVFLGADVQAISGLLANMAVDRSMTASLSDARDALVNAVIDSLSAYRSSVLSNQQPGLMVPFSLRLFPLFVLALLKQKSFQTGTNARLDERIFAMCQVKNQPLVYLMLTTHPSLYRVDNLSDEGALNISDRTIPQPPILQLSVEKLSRDGAFLMDAGSVLMLWVGKNCTQNFLSQVLGVQNYASIPQPMTDLPELDTPESARIIAFISWLREQRPFFPILYVIRDESPMKANFLQNMIEDRTESALSYYEFLLHIQQQVNK
notes: Sec24a, H. sapiens, lacking residues 1–340 (△1–340); Purified alone for fluorescence polarization and as the complex with Sec23a for crystallography; also called human Sec24a; source: High Five insect cells (baculovirus), purified (HisTrap HP, HiTrap Q, Superdex 200); not shown: His6, N-terminal, cleaved
Regarding B1, binding was characterised by a dissociation constant (Kd) of 14.2 µM.

A word on the Kd: it is a measure of binding affinity in units of concentration. A low value points to tighter binding.
